Data published in CN113265001A (HUADAO SHANGHAI BIOMEDICAL CO LTD, dated 2021).

Biological target: T1, BCMA抗原 (antigen in solution, Biacore) (UniProt Q02223 1-54, limits assumed)
T1 construct: also called B细胞成熟抗原; CD269
T1 sequence (looked up): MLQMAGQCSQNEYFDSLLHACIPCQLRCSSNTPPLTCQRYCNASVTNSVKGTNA
Test: Biacore SPR, antibody immobilised on the chip, antigen in the mobile phase

B1: BCMA-12 VHH-mIgG2a Fc 纳米抗体 (Fc fusion)
chain: EVQLVESGGDSVQAGGSLRLSCAVSGYTDSKNLMGWFRQAPGKEREGVAVIYTGGGRPVYADSVKGRFTISQDSAKNTVYLQMNSLKPEDTALYYCAADYLGGAWPFGAYRYWGQGTQVTVSS
notes: also called BCMA VHH B12; BCMA VHH抗体; not shown: mouse IgG2a Fc tag of vector C-4 pCP.Stuffer-mCg2a-FC
Work on B1 yielded a Kd of 0.0634 nM, a koff of 0.000429 s⁻¹ and a kon of 6.77e+06 M⁻¹ s⁻¹.
